Three variants from IntAct's records for PubMed 17891150 can be followed below.

B1: Trinucleotide repeat-containing gene 6B protein (Homo sapiens), Q9UPQ9-2 (parent)
chain: MQTNEGEVSEESSSKVEQEDFVMEGHGKTPPPGEESKQEKEQEREEQLMEDKKRKKEDKKKKEATQKVTEQKTKVPEVTKPSLSQPTAASPIGSSPSPPVNGGNNAKRVAVPNGQPPSAARYMPREVPPRFRCQQDHKVLLKRGQPPPPSCMLLGGGAGPPPCTAPGANPNNAQVTGALLQSESGTAPVWSKSTPPAPDNGTSAWGEPNESSPGWGEMDDTGASTTGWGNTPANAPNAMKPNSKSMQDGWGESDGPVTGARHPSWEEEEDGGVWNTTGSQGSASSHNSASWGQGGKKQMKCSLKGGNNDSWMNPLAKQFSNMGLLSQTEDNPSSKMDLSVGSLSDKKFDVDKRAMNLGDFNDIMRKDRSGFRPPNSKDMGTTDSGPYFEKGGSHGLFGNSTAQSRGLHTPVQPLNSSPSLRAQVPPQFISPQVSASMLKQFPNSGLSPGLFNVGPQLSPQQIAMLSQLPQIPQFQLACQLLLQQQQQQQLLQNQRKISQAVRQQQEQQLARMVSALQQQQQQQQRQPGMKHSPSHPVGPKPHLDNMVPNALNVGLPDLQTKGPIPGYGSGFSSGGMDYGMVGGKEAGTESRFKQWTSMMEGLPSVATQEANMHKNGAIVAPGKTRGGSPYNQFDIIPGDTLGGHTGPAGDSWLPAKSPPTNKIGSKSSNASWPPEFQPGVPWKGIQNIDPESDPYVTPGSVLGGTATSPIVDTDHQLLRDNTTGSNSSLNTSLPSPGAWPYSASDNSFTNVHSTSAKFPDYKSTWSPDPIGHNPTHLSNKMWKNHISSRNTTPLPRPPPGLTNPKPSSPWSSTAPRSVRGWGTQDSRLASASTWSDGGSVRPSYWLVLHNLTPQIDGSTLRTICMQHGPLLTFHLNLTQGTALIRYSTKQEAAKAQTALHMCVLGNTTILAEFATDDEVSRFLAQAQPPTPAATPSAPAAGWQSLETGQNQSDPVGPALNLFGGSTGLGQWSSSAGGSSGADLAGASLWGPPNYSSSLWGVPTVEDPHRMGSPAPLLPGDLLGGGSDSI

This test covers variants of B1. The note with it: with ago2_human AGO2, Q9UKV8.
Chain of ago2_human AGO2, Q9UKV8 (Q9UKV8 whole entry): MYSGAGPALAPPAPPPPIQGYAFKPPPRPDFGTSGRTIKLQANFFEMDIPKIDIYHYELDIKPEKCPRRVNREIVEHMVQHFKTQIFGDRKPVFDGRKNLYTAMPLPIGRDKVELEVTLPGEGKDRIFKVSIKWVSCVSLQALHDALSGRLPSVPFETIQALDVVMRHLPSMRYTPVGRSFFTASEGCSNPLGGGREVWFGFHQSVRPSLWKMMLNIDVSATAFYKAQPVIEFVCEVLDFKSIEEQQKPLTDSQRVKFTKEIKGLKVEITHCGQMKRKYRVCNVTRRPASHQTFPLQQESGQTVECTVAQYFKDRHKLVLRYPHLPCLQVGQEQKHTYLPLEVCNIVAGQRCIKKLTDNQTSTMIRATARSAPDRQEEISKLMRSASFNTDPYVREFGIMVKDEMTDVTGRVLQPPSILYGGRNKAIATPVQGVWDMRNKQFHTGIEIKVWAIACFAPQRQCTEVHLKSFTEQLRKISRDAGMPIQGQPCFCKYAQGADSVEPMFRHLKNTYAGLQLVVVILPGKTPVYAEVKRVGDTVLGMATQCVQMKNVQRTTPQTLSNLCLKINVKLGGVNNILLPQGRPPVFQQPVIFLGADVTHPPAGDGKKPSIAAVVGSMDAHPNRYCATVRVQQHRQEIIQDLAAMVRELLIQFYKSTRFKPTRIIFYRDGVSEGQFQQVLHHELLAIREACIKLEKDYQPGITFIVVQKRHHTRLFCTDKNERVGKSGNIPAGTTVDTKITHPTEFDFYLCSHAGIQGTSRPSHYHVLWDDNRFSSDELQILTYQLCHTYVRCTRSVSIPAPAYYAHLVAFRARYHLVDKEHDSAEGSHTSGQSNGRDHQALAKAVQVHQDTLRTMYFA
W205A;W215A: the “effect of a mutation on the interaction” value is “disrupting interaction”.

As to W215F, the “effect of a mutation on the interaction” value was “disrupting interaction”.

For the variant W205F, the “effect of a mutation on the interaction” value is recorded as “disrupting interaction”.
